Legend:
[1] = biological target: full length human tau protein 2N4R (hT40) (human) (UniProt P10636); test: Simoa sandwich, capture CB7, biotinylated detector
[2] = biological target: full length human tau protein 2N4R (hT40) (human) (UniProt P10636); test: Simoa sandwich, capture S1D12, biotinylated detector
[3] = biological target: full length human tau protein 2N4R (hT40) (human) (UniProt P10636); test: SPR, hT40 immobilised, mAb analyte
[4] = biological target: full length human tau protein 2N4R (hT40) (human) (UniProt P10636); test: Simoa sandwich, capture S1G2, biotinylated detector
[5] = biological target: full length human tau protein 2N4R (hT40) (human) (UniProt P10636); test: Simoa sandwich, capture Tau12, biotinylated detector

Chain of full length human tau protein 2N4R (hT40) (human) (P10636 other isoform, or with tags, fused parts or gaps limits assumed): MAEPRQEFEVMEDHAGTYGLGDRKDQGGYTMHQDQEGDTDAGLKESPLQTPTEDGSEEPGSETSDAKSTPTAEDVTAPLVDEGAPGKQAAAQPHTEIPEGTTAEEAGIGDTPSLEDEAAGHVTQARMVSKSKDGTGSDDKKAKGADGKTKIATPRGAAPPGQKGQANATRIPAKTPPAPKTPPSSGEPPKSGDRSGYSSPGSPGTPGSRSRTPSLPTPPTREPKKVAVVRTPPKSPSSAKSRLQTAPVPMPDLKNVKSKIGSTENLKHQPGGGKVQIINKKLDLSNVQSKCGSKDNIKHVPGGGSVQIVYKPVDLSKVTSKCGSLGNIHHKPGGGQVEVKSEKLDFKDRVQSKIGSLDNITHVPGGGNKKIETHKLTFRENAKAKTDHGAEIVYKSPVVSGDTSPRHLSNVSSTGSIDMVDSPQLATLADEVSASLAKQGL

BT2 (antibody) showed a Simoa limit of detection [1] of 0.75 pg/mL and a Simoa limit of detection [2] of 0.32 pg/mL.

With Tau12 mAb (antibody) the Kd [3] was 1.44 nM, the Simoa limit of detection [4] was 1.6 pg/mL and the Simoa limit of detection [2] was 0.75 pg/mL.

With Tau46 (antibody) the Simoa limit of detection [1] was 2.2 pg/mL and the Simoa limit of detection [4] was 2.2 pg/mL.

In the case of HT7 (antibody), the Simoa limit of detection [1] is reported as 2.2 pg/mL, the Simoa limit of detection [4] is reported as 0.32 pg/mL and the Simoa limit of detection [2] is reported as 0.32 pg/mL. It also gave a Simoa limit of detection [5] of 2.2 pg/mL.

From patent US20250355001A1, “METHOD FOR DETECTING A TAU PROTEIN FRAGMENT IN A SAMPLE” (GTINVENT LIMITED, priority 2022, published 2025)
